In US9290540B2, “Angiotensin Type 2 (AT2) receptor agonists and uses thereof” (Lanthio Pep B.V., priority 2010, dated 2016):
Bridges are numbered along the chain shown (N, C = ends). Where no end group is shown, it is not given here. [ ]: non-standard residue; d: D form.

What was measured:
[1] = tested on: extracellular-signal-regulated kinase (ERK) phosphorylation in human bronchial epithelial (HBE) cells; test: Peptide-induced Erk1/Erk2/total Erk phosphorylation in HBE cells; assay type: cell-based; details: peptide 10^-6 M, 10 min challenge
Description: (§1) Peptides were purchased from JPT: linear DDRVAIHA (SEQ ID No: 4), dKDRVdCIHC (SEQ ID No: 9), KDRVdCIHC (SEQ ID No: 9), DDRVdCIHC (SEQ ID No: 11), IDRVdCIHC (SEQ ID No: 12), NDRVdCIHC (SEQ ID No: 13), SDRVdCIHC (SEQ ID No: 14), in which dK stands for D-lysine and dC stands for D-cysteine. The AT2 receptor antagonist PD123319 was from Axon Medchem. Studies were performed using the immortal human bronchial epithelial cell line HBE (Cozens A L, et al. 1994 CFTR expression and chloride secretion in polarized immortal human bronchial epithelial cells. Am J Respir Cell Mol Biol 10:38-47). All culture media and supplements, multiwell plates and flasks were from PAA.
(§2) Cell culture. Multi-well plates received 1 ml from a coating solution (for 112 ml: F12 medium 100 ml; bovine serum albumin 10 ml (1 mg/ml); collagen I, Bovine 1 ml (3 mg/ml); human fibronectin 1 ml (1 mg/ml)) and were incubated for 6 hours at 37° C. and 5% CO2. Subsequently the coating solution was discarded and the plates were dried for 2 hours in the laminar flow cabinet. In each 12 well plate 8.10^4 HBE cells were seeded per well followed by incubation for 24 hours at 37° C. and 5% CO2. Cell culture medium was prepared by adding 432.2 ml MEM 199 basic medium to 50 ml […] FCS and 5 ml L-Glutamin (200 mM), 10 ml Penicillin/Streptomycin (10.000 units/ml/10 mg/ml) and 2.8 ml Gentamycin (10 mg/ml). At 85-90% confluency medium was replaced by medium without FCS and growth factors followed by again 24 hours incubation at 37° C. and 5% CO2.
Erk1 and Erk2 phosphorylation. The medium was removed from each well and was washed once with HBS buffer without calcium and magnesium. The capacity of peptide at 10^−6 M was tested after 20 min preincubation with either 10^−6 M of PD123319 or concomitant controls, followed by washing. Challenges and concomitant controls were performed at 1 ml/well during 10 min. All samples were tested in triplicate. After the challenge 150 μl RIPA buffer (RIPA, TBS, 1% Nonidet P-40, 0.5% sodium deoxycholate, 0.1% SDS, 0.004% sodium azide, 1% PMSF (2 mM final concentration), 1% sodium orthovanadate (1 mM final concentration) and 1% protease inhibitor cocktail) was added to each well. The plates were incubated for 15 minutes at 4° C. The lysed cells were scraped from the surface. […] The supernatant was transferred into new cups and of a 5 al sample the total protein content was determined via the DC protein assay according to lowry (Bio-Rad), with BSA used as calibration protein. […] The phosphorylated Erk proteins and GAPDH were stained with BCIP/NBT and quantified relative to GAPDH and total Erk using TotalLab software. Alternatively, total Erk phosphorylation was measured after permeabilization of the non-detached cells. […]

AT2 receptor = target: T1, AT2 receptor (Homo sapiens, UniProt P50052); test: Inhibition of peptide-induced ERK phosphorylation by AT2 receptor antagonist PD123319 in HBE cells; assay type: cell-based; details: for inhibition of peptide-induced ERK1 phosphorylation by PD123319 / inhibition of peptide-induced ERK phosphorylation (ERK1 and ERK2) by PD123319 / inhibition of peptide-induced ERK2 phosphorylation by PD123319 / inhibition of peptide-induced (total) Erk phosphorylation by PD123319: 20 min preincubation with 10^-6 M PD123319, peptide 10^-6 M
T1 construct: stimulate extracellular-signal-regulated kinase (ERK) phosphorylation in human bronchial epithelial (HBE) cells; endogenous in cells; host or cells: HBE (immortal human bronchial epithelial cell line)
T1 sequence (P50052 1-363): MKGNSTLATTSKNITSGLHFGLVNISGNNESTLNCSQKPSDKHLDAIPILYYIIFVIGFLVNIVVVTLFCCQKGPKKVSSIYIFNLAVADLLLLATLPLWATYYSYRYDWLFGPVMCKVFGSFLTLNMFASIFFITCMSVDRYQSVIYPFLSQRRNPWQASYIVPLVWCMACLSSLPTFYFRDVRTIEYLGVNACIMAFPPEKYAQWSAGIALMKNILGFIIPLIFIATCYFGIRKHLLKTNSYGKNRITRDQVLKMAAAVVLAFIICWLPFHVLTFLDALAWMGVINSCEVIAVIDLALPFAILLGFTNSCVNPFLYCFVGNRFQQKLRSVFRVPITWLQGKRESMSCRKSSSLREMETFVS
Description: as §1, §2
Erk1 and Erk2 phosphorylation. The medium was removed from each well and was washed once with HBS buffer without calcium and magnesium. The capacity of peptide at 10^−6 M was tested after 20 min preincubation with either 10^−6 M of PD123319 or concomitant controls, followed by washing. Challenges and concomitant controls were performed at 1 ml/well during 10 min. All samples were tested in triplicate. After the challenge 150 μl RIPA buffer (RIPA, TBS, 1% Nonidet P-40, 0.5% sodium deoxycholate, 0.1% SDS, 0.004% sodium azide, 1% PMSF (2 mM final concentration), 1% sodium orthovanadate (1 mM final concentration) and 1% protease inhibitor cocktail) was added to each well. The plates were incubated for 15 minutes at 4° C. The lysed cells were scraped from the surface. The lysate was transferred to 1.5 ml eppendorf cups and centrifuged 5 minutes at 12.700×g to pellet the cell debris. The supernatant was transferred into new cups and of a 5 al sample the total protein content was determined via the DC protein assay according to lowry (Bio-Rad), with BSA used as calibration protein. Protein was separated on gel and blotted with p-ERK mouse monoclonal IgG2a and mouse GAPDH anti-rat IgG1 antibodies and as a second antibody goat anti-mouse IgG-AP. The phosphorylated Erk proteins and GAPDH were stained with BCIP/NBT and quantified relative to GAPDH and total Erk using TotalLab software. Alternatively, total Erk phosphorylation was measured after permeabilization of the non-detached cells.
In this example it is investigated whether or not cAng-(1-7) analogs with an N-terminal extension of two amino acids stimulate the AT2 receptor.
Thioether bridged peptide synthesis and cell culture and measurement of Erk1- and total Erk phosphorylation were essentially as in example 2.

[2] = tested on: precontracted aorta rings; test: Vasodilation on phenylephrine-precontracted aorta rings (organ bath); parameters: species or system Sprague Dawley rat; details: sub-nM concentration; peptides added cumulatively 0.1 nM to 1 μM; rings precontracted with 30 nM phenylephrine
Description: Peptides: KDRVdCIHC (SEQ ID No: 9), and YDRVdCIHC (SEQ ID No: 10) wherein dC stands for D-cysteine were purchased from JPT. Specified pathogen-free male Sprague Dawley rats (SD) (Harlan, Zeist, The Netherlands), weighing […] were used. Prior to the experiment, the animals were housed together with free access of tap water and solid chow (Harlan, Zeist, The Netherlands) in a temperature and humidity controlled room and a 12/12 h light/dark cycle. All protocols described were approved by the University of Groningen Committee for Animal Experimentation.
Thioether-bridged peptides were obtained from the disulfide bridged peptide via base-asisted sulfur extrusion as previously (Galande A K, et al 2003. Biopolymers 71:534-551).
(§3) Vasodilation on precontracted aorta-rings. Arterial rings for organ bath experiments were prepared as described previously (Kluskens L D, et al. 2009. J Pharmacol Exp Ther 328:849-54). Before testing the vasodilating effects of the peptides the rings were precontracted to 50% of their maximum contraction level with 30 nM phenylephrine (PE). The 5,8 thioether bridged peptides KDRV[AIHA]C (SEQ ID No: 3) or YDRV[AIHA]c (SEQ ID No: 5) were added cumulatively in a range of 0.1 nM to 1 μM. Vasodilation data are represented as percentage of relaxation of 30 nM PE contraction.

Mas receptor = target: T2, Mas receptor (Rattus norvegicus, UniProt P12526); test: Peptide-induced vasodilation of precontracted aorta rings in presence of Mas receptor antagonist D-Pro7-Ang-(1-7); parameters: species or system Sprague Dawley rat; details: D-Pro7-Ang-(1-7) 0.1 μM, 10 min before 30 nM PE
T2 construct: vasodilation in precontracted aorta rings from Sprague Dawley rats; from tissue; host or cells: aorta rings of male Sprague Dawley rats
T2 sequence (P12526 1-324): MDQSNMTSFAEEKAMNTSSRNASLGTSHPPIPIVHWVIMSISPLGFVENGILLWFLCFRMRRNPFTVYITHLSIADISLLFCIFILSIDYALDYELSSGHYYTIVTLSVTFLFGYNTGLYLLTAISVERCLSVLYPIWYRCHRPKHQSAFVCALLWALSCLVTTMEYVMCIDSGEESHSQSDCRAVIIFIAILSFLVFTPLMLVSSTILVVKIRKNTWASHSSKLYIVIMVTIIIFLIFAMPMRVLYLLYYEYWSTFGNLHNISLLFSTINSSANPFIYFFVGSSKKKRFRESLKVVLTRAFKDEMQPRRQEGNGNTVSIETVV
Description: as §3
D-Pro7-ang-(1-7), ang-(1-7) with a D-isomer of proline at position 7, which is a Mas-receptor antagonists, was from JPT and purified by HPLC prior to use. This antagonist was used as in Kluskens et al 2009: 10 min before addition of 30 nM PE at a concentration of 0.1 μM. Other materials and methods were as in example 1.

Substance: Asp-Asp-Arg-Val-Abu/Ala-Ile-His-Abu/Ala (DDRVAIHA; not fully specified; thioether bridge (lanthionine); cyclic AT2 receptor antagonist) [DcAng-(1-7)]
- peptide-induced Erk1 phosphorylation [1]: induced Erk1 phosphorylation
- inhibition of peptide-induced ERK1 phosphorylation by PD123319 (AT2 receptor): inhibited
- inhibition of peptide-induced ERK phosphorylation (ERK1 and ERK2) by PD123319 (AT2 receptor): complete

Substance: Asn-Asp-Arg-Val-Abu/Ala-Ile-His-Abu/Ala (NDRVAIHA; not fully specified; thioether bridge (lanthionine); cyclic AT2 receptor antagonist) [N-cAng(1-7)]
- interaction with / stimulation of the AT2 receptor (conclusion from PD123319 sensitivity of ERK phosphorylation) (AT2 receptor): did not or hardly interact with the AT2 receptor
- inhibition of peptide-induced ERK1 phosphorylation by PD123319 (AT2 receptor): less
- inhibition of peptide-induced ERK2 phosphorylation by PD123319 (AT2 receptor): less or absent

Substance: ScAng-(1-7): thioether bridged cAng-(1-7) with Ser at position -1, made from SDRVdCIHC (SEQ ID No: 14) (SDRV[dC]IHC; bridge 5-8; not fully specified (bridges); also: thioether formed from the disulfide precursor by sulfur extrusion)
- interaction with / stimulation of the AT2 receptor (conclusion from PD123319 sensitivity of ERK phosphorylation) (AT2 receptor): did not or hardly interact with the AT2 receptor
- inhibition of peptide-induced ERK1 phosphorylation by PD123319 (AT2 receptor): less
- inhibition of peptide-induced ERK2 phosphorylation by PD123319 (AT2 receptor): did not affect
- inhibition of peptide-induced ERK2 phosphorylation by PD123319 (AT2 receptor; listed as Ser): less or absent

Substance: Ile-Asp-Arg-Val-Abu/Ala-Ile-His-Abu/Ala (IDRVAIHA; not fully specified; thioether bridge (lanthionine); cyclic AT2 receptor antagonist) [IcAng-(1-7)]
- peptide-induced Erk1 phosphorylation [1]: induced Erk1 phosphorylation
- inhibition of peptide-induced ERK1 phosphorylation by PD123319 (AT2 receptor): inhibited
- inhibition of peptide-induced ERK phosphorylation (ERK1 and ERK2) by PD123319 (AT2 receptor): complete

Substance: Lys-Asp-Arg-Val-Abu/Ala-Ile-His-Abu/Ala (KDRVAIHA; not fully specified; thioether bridge (lanthionine); cyclic AT2 receptor antagonist) [KcAng-(1-7), cAng-(1-7) N-terminally extended with Lys]
- vasodilation of precontracted aorta rings (percentage of relaxation of 30 nM PE contraction) [2]: significant vasodilating capacity
- inhibition of peptide-induced ERK phosphorylation (ERK1 and ERK2) by PD123319 (AT2 receptor): complete
- inhibition of peptide-induced vasodilation by Mas receptor antagonist D-Pro7 (Mas receptor): does not inhibit

Substance: Tyr-Asp-Arg-Val-Abu/Ala-Ile-His-Abu/Ala (YDRVAIHA; not fully specified; thioether bridge (lanthionine); cyclic AT2 receptor antagonist) [YcAng-(1-7), cAng-(1-7) N-terminally extended with Tyr]
- vasodilation of precontracted aorta rings (percentage of relaxation of 30 nM PE contraction) [2]: significant vasodilating capacity
- inhibition of peptide-induced vasodilation by Mas receptor antagonist D-Pro7 (Mas receptor): does not inhibit

Substance: DDRVAIHA (cyclic AT2 receptor antagonist) [reference compound]
- peptide-induced (total) Erk phosphorylation [1]: induced Erk phosphorylation
- inhibition of peptide-induced (total) Erk phosphorylation by PD123319 (AT2 receptor): could not be inhibited

Substance: IDDRVAIHA (not fully specified) [reference compound]
- peptide-induced (total) Erk phosphorylation [1]: induced Erk phosphorylation
- inhibition of peptide-induced (total) Erk phosphorylation by PD123319 (AT2 receptor): no inhibition at all
